Settings: Bacillus amyloliquefaciens; pH 6.3; 25 °C; Urea; Fluorescence; MES 50 mM; reversible: yes; whole UniProt chain shown

B1: Ribonuclease wild type, P00648 (protein)
chain: MMKMEGIALKKRLSWISVCLLVLVSAAGMLFSTAAKTETSSHKAHTEAQVINTFDGVADYLQTYHKLPDNYITKSEAQALGWVASKGNLADVAPGKSIGGDIFSNREGKLPGKSGRTWREADINYTSGFRNSDRILYSSDWLIYKTTDHYQTFTKIR
denaturant m value: 1.92 kcal/mol/M
denaturant midpoint (higher = more stable): 4.58 M
unfolding free energy: 8.82 kcal/mol

— FireProtDB (doi:10.1006/jmbi.1993.1508)
